Test results taken from PMC9867570 (Science (New York, N.Y.), 2022).

Columns and labels:
[1] = biological target: Chaetomium thermophilum Nup188, full-length (Chaetomium thermophilum, UniProt G0SFH5 1-1858); assay: ITC
[2] = biological target: Chaetomium thermophilum Nup192, full-length (Chaetomium thermophilum, UniProt G0S4T0 1-1756); assay: ITC
[3] = biological target: T1, human NUP93^SOL (human, UniProt Q8N1F7 174-819); assay: SEC
T1 sequence: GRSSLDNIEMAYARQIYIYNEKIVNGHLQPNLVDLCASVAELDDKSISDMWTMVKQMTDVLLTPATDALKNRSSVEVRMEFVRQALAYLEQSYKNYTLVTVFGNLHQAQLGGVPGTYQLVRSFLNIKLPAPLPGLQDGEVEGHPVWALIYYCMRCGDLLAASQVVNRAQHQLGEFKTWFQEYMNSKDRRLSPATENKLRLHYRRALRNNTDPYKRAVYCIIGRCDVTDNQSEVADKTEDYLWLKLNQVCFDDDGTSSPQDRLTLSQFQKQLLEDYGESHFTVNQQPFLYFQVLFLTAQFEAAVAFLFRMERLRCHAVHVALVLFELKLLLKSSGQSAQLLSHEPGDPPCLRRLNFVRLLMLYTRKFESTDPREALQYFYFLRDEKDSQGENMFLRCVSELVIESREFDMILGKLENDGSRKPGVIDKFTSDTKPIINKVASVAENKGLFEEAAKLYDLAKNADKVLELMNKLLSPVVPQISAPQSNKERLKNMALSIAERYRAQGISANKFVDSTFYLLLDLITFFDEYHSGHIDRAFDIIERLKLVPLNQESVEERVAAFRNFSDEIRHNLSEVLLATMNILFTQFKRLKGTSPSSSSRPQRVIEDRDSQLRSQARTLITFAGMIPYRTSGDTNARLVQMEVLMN

Chain of Chaetomium thermophilum Nup192, full-length (G0S4T0 whole entry): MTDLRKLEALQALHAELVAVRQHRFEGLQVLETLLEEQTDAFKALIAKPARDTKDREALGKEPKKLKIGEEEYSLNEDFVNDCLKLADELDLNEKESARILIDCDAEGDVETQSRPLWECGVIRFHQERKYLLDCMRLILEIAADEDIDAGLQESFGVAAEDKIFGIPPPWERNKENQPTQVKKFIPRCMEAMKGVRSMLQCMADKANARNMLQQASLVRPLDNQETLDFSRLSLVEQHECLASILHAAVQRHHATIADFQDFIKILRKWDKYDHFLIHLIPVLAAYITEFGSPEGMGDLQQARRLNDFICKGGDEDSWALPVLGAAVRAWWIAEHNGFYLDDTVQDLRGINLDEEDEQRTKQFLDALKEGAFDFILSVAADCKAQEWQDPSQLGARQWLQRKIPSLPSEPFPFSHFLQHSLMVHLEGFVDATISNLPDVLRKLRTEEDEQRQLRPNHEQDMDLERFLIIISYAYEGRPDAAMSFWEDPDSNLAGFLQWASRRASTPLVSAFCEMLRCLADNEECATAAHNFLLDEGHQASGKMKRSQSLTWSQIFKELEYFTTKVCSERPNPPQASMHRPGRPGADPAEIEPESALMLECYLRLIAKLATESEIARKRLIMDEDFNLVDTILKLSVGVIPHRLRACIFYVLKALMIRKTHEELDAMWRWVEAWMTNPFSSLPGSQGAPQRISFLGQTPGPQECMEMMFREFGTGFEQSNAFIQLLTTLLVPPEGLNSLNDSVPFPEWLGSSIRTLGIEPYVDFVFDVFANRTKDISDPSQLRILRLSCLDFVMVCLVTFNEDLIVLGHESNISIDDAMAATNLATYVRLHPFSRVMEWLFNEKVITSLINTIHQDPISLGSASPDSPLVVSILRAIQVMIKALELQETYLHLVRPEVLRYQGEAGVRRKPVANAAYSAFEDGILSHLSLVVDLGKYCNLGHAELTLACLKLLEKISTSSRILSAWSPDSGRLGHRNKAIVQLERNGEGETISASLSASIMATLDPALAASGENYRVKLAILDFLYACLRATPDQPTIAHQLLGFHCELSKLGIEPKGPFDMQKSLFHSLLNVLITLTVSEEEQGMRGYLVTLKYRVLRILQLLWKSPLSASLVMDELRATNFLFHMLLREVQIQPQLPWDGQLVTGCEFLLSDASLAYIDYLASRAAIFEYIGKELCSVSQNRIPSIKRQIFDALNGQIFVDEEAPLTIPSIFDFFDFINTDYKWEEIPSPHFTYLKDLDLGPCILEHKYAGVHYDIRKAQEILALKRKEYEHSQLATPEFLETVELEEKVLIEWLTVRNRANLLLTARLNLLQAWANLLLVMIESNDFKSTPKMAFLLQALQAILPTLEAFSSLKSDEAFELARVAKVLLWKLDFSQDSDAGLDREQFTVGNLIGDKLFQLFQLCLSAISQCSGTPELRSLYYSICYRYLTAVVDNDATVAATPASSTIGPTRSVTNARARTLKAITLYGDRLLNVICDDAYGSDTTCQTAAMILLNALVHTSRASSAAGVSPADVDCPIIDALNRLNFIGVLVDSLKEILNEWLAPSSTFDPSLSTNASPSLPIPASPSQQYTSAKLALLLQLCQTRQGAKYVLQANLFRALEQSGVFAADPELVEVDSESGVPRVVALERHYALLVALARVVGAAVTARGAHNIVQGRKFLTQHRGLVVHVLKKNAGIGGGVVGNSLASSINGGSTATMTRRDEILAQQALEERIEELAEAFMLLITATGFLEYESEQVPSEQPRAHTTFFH
Chain of Chaetomium thermophilum Nup188, full-length (G0SFH5 whole entry): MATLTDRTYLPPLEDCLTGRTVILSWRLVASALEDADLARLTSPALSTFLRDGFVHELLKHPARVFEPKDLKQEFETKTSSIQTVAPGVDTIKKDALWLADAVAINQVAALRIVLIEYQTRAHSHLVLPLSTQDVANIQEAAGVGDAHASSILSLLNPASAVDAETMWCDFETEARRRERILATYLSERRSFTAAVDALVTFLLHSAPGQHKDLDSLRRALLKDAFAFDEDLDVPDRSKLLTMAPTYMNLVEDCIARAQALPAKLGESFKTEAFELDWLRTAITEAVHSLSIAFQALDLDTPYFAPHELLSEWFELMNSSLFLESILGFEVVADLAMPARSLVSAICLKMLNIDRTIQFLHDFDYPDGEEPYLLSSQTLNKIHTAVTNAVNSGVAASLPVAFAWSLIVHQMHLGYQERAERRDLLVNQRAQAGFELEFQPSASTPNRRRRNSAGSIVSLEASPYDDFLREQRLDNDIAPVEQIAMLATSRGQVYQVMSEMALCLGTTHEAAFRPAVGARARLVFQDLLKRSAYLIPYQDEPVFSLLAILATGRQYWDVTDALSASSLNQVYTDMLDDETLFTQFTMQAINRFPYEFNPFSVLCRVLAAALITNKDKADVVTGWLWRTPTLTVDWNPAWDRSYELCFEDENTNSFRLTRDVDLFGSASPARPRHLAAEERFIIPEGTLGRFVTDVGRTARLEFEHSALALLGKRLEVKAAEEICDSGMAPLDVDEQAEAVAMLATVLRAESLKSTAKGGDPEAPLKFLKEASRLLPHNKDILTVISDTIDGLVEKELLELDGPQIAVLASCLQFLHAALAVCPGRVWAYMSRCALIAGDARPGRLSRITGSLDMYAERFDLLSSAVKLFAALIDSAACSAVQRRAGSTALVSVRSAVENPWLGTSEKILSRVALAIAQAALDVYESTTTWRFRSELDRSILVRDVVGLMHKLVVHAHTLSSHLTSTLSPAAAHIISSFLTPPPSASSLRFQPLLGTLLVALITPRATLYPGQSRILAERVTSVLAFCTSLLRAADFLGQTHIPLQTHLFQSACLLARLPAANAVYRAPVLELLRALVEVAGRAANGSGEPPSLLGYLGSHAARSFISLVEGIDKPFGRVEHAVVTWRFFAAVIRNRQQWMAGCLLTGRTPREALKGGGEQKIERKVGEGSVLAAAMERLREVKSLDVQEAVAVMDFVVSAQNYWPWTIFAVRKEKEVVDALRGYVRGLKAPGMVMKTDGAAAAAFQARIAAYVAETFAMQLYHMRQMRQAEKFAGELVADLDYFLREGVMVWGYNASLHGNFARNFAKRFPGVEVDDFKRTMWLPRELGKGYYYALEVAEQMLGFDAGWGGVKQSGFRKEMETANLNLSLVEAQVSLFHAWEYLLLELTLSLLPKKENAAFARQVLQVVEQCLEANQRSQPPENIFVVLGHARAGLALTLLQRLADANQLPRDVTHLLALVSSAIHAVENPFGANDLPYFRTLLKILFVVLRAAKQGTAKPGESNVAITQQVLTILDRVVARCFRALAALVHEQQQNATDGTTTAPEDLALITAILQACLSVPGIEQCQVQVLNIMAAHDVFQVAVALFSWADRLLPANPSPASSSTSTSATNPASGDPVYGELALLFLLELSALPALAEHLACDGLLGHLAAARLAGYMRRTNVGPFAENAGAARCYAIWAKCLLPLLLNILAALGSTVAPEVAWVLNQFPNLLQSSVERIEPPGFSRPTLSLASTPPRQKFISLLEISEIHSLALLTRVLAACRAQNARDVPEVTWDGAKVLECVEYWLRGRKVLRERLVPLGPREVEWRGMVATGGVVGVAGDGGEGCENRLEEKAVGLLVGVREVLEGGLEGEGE

Binder	Kd [1] [nM]	Kd [2] [nM]	binding result [3]
Nic96^187–301 (domain or fragment, Chaetomium thermophilum, UniProt G0S024 187-301, looked up) EPGKAHYFLAASGVDPGAAVRDLGALGLQAKTERTAASVGPAAGPSGVSTTGFGTGLGEVDVDTYLSNLQTKTTLSMIADGLERSARDFDAFLEENVTLEWEAQRKRIYQHFGIK	~90	~75	–
Chaetomium thermophilum Nup145N (natural protein, UniProt G0SAK3 1-993, looked up) MSFGFGSGGFGQNNNSSTFGGFGSTPTTNTGFGSTGTTAFGSTSNTTGGGLFGGGGGGFGSGNTFGSGFGSKPAFGTPATTSSTSLFGSTTTTAGGTGFGSGGFGSTNTSSPFGGGGTSLFGNKTTTGFGSGTSTFGSNTGGGLFGGGSTTTGFGATNNPGIGTNVGDPPGTAVVPFSPTVEKEVNNPSQSNSYQNILFMDAYKKWSAEELRLADYNQGRKTAAPGGTGAFGSSGFGGFGTTSNTGGFGSNTGGGLFGNTQQNTGGFGTTNTTGSAFGSGGGLFGNKPATGGLFGTSSSQPAQSGGLFGSGTASTFGSSNTGTTSTFGSNNNTGGGLFGSNNTSSKPAFSFGTSNTSTPGFGTATTGSGFGTGTTTNTGGGLFGNTAQNTNTGGGLFGNQQQSGSAFGSGTGFGQQNQSTGTSLFGNTQQKPGGLFGSTTTNTSGGLFGSTNTGTSTFGQTPATQNTGGGLFGSKPAGTGGLFGSTATNQPASTGGLFGNLNTNAQTQQPATGGLFGNLGQNNQAKPSLFGTSTTTGGGLFGNTNAQQQTGSLFGTSTAQQQPQTGLGASLFGSSQQQQQQPQTFSTSITDISAYGATTLFSGLPDDKIQNPGPLATPLSGKAKVKSRSILPMYKLSPANASRLVTTPQKRAYGFSFSAYGSPTSPSSSASSTPGAFGQSILSSSINRGLNKSISASNLRRSLNVEDSILQPGAFSANSSMRLLGGPGSHKKLVINKDMRTDLFSPPNKDKQPQEDGTAARKTVTKRVSFDTSNVETPEKTIESSIPATDDSGYLKPDARSTANGTNGANGAKSSPVAAASPPEMEQVKGKELAVVHEEESPAPAQTDKPRGSQIEPGAYWMSPTADDIRAMNRMQRQRVVGFTVGRENVGSVQFKVPVDLSNINLDDLFGTIVILEPRSATVYPNAAKKPPMGKGLNVPALISLEHSWPRGGPTIKGRRLERHIERLKSIPDTTFESYDPETGVWAFSVEHF	–	~825	–
Nup145N^R1 (residues 616–683) (peptide, UniProt G0SAK3 616-683, looked up) ATPLSGKAKVKSRSILPMYKLSPANASRLVTTPQKRAYGFSFSAYGSPTSPSSSASSTPGAFGQSILS	–	~1600	–
Nic96^R2 (residues 240–301) (peptide, UniProt G0S024 240-301, looked up) GTGLGEVDVDTYLSNLQTKTTLSMIADGLERSARDFDAFLEENVTLEWEAQRKRIYQHFGIK	~90	~75	–
SUMO-NUP53^N (residues 1–169) (domain or fragment, human, UniProt Q8NFH5 1-169, looked up) MAAFAVEPQGPALGSEPMMLGSPTSPKPGVNAQFLPGFLMGDLPAPVTPQPRSISGPSVGVMEMRSPLLAGGSPPQPVVPAHKDKSGAPPVRSIYDDISSPGLGSTPLTSRRQPNISVMQSPLVGVTSTPGTGQSMFSPASIGQPRKTTLSPAQLDPFYTQGDSLTSED	–	–	binds
human NUP53^R2 (residues 84–150) (peptide, UniProt Q8NFH5 84-150, looked up) DKSGAPPVRSIYDDISSPGLGSTPLTSRRQPNISVMQSPLVGVTSTPGTGQSMFSPASIGQPRKTTL	–	–	binds
